From the supplement of paper PMC12042874
± gives the uncertainty stated by the source.

Assay: amyloid nucleation score (Sup35N fusion, yeast selection) (log enrichment); library NNK2; higher = more nucleation; inactive = no reads after selection
In short: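 Using DiMSum, nucleation scores were taken as the log enrichment of output over input reads, centred on the mode score of non-aggregating sequences. The input and output reads came from Illumina sequencing of plasmid inserts, with sequences under 100 input reads excluded. The yeast were psi-negative, expressed Sup35N fused to peptides of 20 random codons, were induced with 100 μM copper sulfate for 24 hours, and were grown 7 days at 30°C on medium lacking adenine and uracil.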
FITDYTWTYLHAWLFIHQGV gave an amyloid nucleation score of -0.705 ± 1.1.
For FKAVS, the amyloid nucleation score was -0.291 ± 1.1.
In the case of FKFKLGNGIMDGSRMGHWAL, the amyloid nucleation score is reported as 1.17 ± 0.47.
With FKGHHGHKVWETH the amyloid nucleation score was -0.145 ± 1.1.
Substance FKGVCCMHNELASIDQWVGG has an amyloid nucleation score of 0.192 ± 0.56.
For FKILFLAHRLTGLFKSSTGF, the amyloid nucleation score was “inactive”.
For FKLGGSNVDDFFVFNWITVF, the amyloid nucleation score was -0.596 ± 0.76.
FKRDLMLYFCCSWCRKVCVY gave an amyloid nucleation score of -0.432 ± 0.34.
In the case of FKSLLCLFAWRLVTFHVGE, the amyloid nucleation score is reported as -0.73 ± 1.1.
FKTVCVGKCLVFMVTDAELI gave an amyloid nucleation score of -1.49 ± 0.76.
FKYVFCSDEVGSMYVMCNCM showed an amyloid nucleation score of 8.568 ± 0.034.
With FLDKCVRSSIENYWV the amyloid nucleation score was -0.074 ± 1.1.
In the case of FLFQWLLEKPYFYPAFCKCK, the amyloid nucleation score is reported as 4.49 ± 0.061.
For FLFVNDVGRE, the amyloid nucleation score was “inactive”.
For FLGTHVHANCSGYMVMIVYR, the amyloid nucleation score was 7.773 ± 0.041.
In the case of FLIFSYIGLFSVISYRSARV, the amyloid nucleation score is reported as “inactive”.
For FLIRDLAMHSSCSGSAIMIT, the amyloid nucleation score was -0.713 ± 0.37.
FLKIYPIPNCYERCCVHLPP showed an amyloid nucleation score of 0.06 ± 0.61.
With FLLPGCSLIFFYCSGCSMV the amyloid nucleation score was 5.014 ± 0.031.
Substance FLMANSFFCNCFYTVYFTHC has an amyloid nucleation score of 4.52 ± 0.047.
In the case of FLMISWSLWGFFLY, the amyloid nucleation score is reported as “inactive”.
FLMYK gave an amyloid nucleation score of -0.75 ± 0.76.
In the case of FLRYHNAGALENIRYVSCLC, the amyloid nucleation score is reported as -0.253 ± 0.56.
FLSYFCIIFSTNLKLSSK showed an amyloid nucleation score of 2.1 ± 0.15.
In the case of FLSYLN, the amyloid nucleation score is reported as -0.322 ± 0.5.
In the case of FLVIVQPSHFGCSKSNKGVW, the amyloid nucleation score is reported as 0.453 ± 0.66.
In the case of FLVLGFMIWYTLRCLALTFS, the amyloid nucleation score is reported as “inactive”.
Substance FLWKRVVLSREEMAMDTTGS has an amyloid nucleation score of 5.47 ± 0.066.
With FLWYGISVI the amyloid nucleation score was 0.02 ± 0.4.
FLYNFSHIRFVMYNRNESCF showed an amyloid nucleation score of 3.48 ± 0.13.
Substance FMIMNYNQLCINRCLNGGRV has an amyloid nucleation score of 9.059 ± 0.044.
With FMLQVVGRVEVFH the amyloid nucleation score was 3.32 ± 0.066.
In the case of FMLRTAQSHISSTVTSVKQA, the amyloid nucleation score is reported as 0.064 ± 0.4.
FMMELCLALYLLSYQ showed an amyloid nucleation score of 0.061 ± 0.8.
Work on FMNLTLGIYKDFITFMMYVS yielded an amyloid nucleation score of 1.83 ± 0.12.
For FMSIFDWSCVWFYLCKGTWD, the amyloid nucleation score was -1.75 ± 0.54.
Substance FMSRTWLAYFTCKMLHGLLR has an amyloid nucleation score of 0.863 ± 0.41.
Substance FMSVFTSAFLISHIMLV has an amyloid nucleation score of 0.21 ± 1.
FMYLPL gave an amyloid nucleation score of -0.596 ± 0.3.
FNFVMLYPTPAGSAKFVGCI showed an amyloid nucleation score of 2.85 ± 0.19.
In the case of FNGLSSFSFMLIGTGFDISC, the amyloid nucleation score is reported as -0.934 ± 0.64.
Work on FNRLA yielded an amyloid nucleation score of -0.603 ± 1.1.
In the case of FNSLILQIIVVRV, the amyloid nucleation score is reported as 7.843 ± 0.04.
Work on FNTRMSIKSGNMTWSNYYWF yielded an amyloid nucleation score of 5.771 ± 0.053.
In the case of FNVAGRRRISGTNLY, the amyloid nucleation score is reported as -0.159 ± 1.1.
Substance FNVDKRPRSDVCLAGCISD has an amyloid nucleation score of -0.825 ± 0.56.
FNVSVGMMNFRMERLGI gave an amyloid nucleation score of -0.819 ± 0.42.
With FPAQPAVRSRSACWYVLQVR the amyloid nucleation score was 0.111 ± 0.49.
For FPASHRVVQV, the amyloid nucleation score was 5.41 ± 0.065.
In the case of FPFLDGVVLSKEFYNLR, the amyloid nucleation score is reported as -1 ± 1.
Substance FPGLDGNQMFRLC has an amyloid nucleation score of 0.42 ± 0.66.
For FPGRSSCDHTAMWLL, the amyloid nucleation score was 0.732 ± 0.4.
In the case of FPIAVVKRALDLAVNGLESD, the amyloid nucleation score is reported as 0.021 ± 0.44.
With FPMFSYTSMHYGH the amyloid nucleation score was 1.83 ± 0.17.
In the case of FPNLFYFADYVLICNLMIKL, the amyloid nucleation score is reported as 4.585 ± 0.029.
FPQFNRIWSSNFFAHIEGLN gave an amyloid nucleation score of -1.85 ± 0.44.
Substance FPTFFCLAIIWKYMFLLIKF has an amyloid nucleation score of -0.238 ± 1.1.
Substance FPTFQSLRDPRHMLFRGNFM has an amyloid nucleation score of -0.317 ± 1.1.
FPWQSSDYFWNHARRS showed an amyloid nucleation score of -0.043 ± 0.6.
Work on FQNGQDGYGESLV yielded an amyloid nucleation score of -0.898 ± 1.1.
In the case of FQVSCVHQVPRAAGVADGAV, the amyloid nucleation score is reported as 0.375 ± 0.21.
Work on FRAPFTDAGPWSSSGNFLRL yielded an amyloid nucleation score of -0.151 ± 0.37.
Substance FRDIVWF has an amyloid nucleation score of -0.469 ± 0.55.
Work on FRFSNR yielded an amyloid nucleation score of 0.389 ± 0.56.
FRFWLIDAHLLWDFSYLDTR gave an amyloid nucleation score of 3.28 ± 0.13.
For FRGIPCLCHVIM, the amyloid nucleation score was 5.81 ± 0.081.
For FRGSAFS, the amyloid nucleation score was 7.173 ± 0.051.
For FRHYSYRRWQSLHKIVGICH, the amyloid nucleation score was “inactive”.
With FRIIYKWCLMPLMPGCGGM the amyloid nucleation score was “inactive”.
With FRKSFHIYIVELYMDDHPLM the amyloid nucleation score was “inactive”.
For FRLAVFSEFQCFR, the amyloid nucleation score was 1.9 ± 0.12.
For FRLNMAYDEPVCLMGSVHNV, the amyloid nucleation score was -1.38 ± 0.54.
FRLTIDNFDVNGLLSEMAYG showed an amyloid nucleation score of -0.293 ± 0.38.
For FRMSVKR, the amyloid nucleation score was 0.309 ± 0.33.
Substance FRMVSKPMLYNIMRFTSMLV has an amyloid nucleation score of 0.057 ± 1.1.
With FRNAGIKRCPFVTRDQSTHF the amyloid nucleation score was “inactive”.
For FRSNYVKAFRYLYVGLVVNL, the amyloid nucleation score was -0.505 ± 1.1.
FRYIKPTCSFICLVRFVGDF gave an amyloid nucleation score of -0.833 ± 1.
With FRYRKSLDCNAMVPERQTGT the amyloid nucleation score was 1.11 ± 0.53.
For FSFEMDISLWALWGYMRSDL, the amyloid nucleation score was “inactive”.
In the case of FSFYLTQSKSALIIDVAQRI, the amyloid nucleation score is reported as -0.231 ± 0.49.
With FSGFVCWQADIFDDANIRLV the amyloid nucleation score was -0.707 ± 0.78.
Work on FSHFAPWLSSDLCMWSCYLG yielded an amyloid nucleation score of 5.269 ± 0.041.
FSIDVSSYRMWLPVSDLYFI gave an amyloid nucleation score of -0.545 ± 0.76.
Work on FSLFCPWRKWLLDEVFM yielded an amyloid nucleation score of 0.5 ± 0.27.
With FSLGQKLLFCFCEVCWLNVA the amyloid nucleation score was 2.97 ± 0.1.
